According to patent publication US6562613:
“Also recorded” adds a separate entry of the source.

B1: procollagen C-proteinase pCP-2 (986 amino acids), recombinant, in medium of transfected HT-1080 cells (protein)
chain: AATSRPEPVWPDGVIPFVIGGNFTGSQRAVFPQAMRHWEKHTCVTFLERTDEDSYILFTYAPCGCCSYVGRRGGGPQAISMGKNCDKFGIVVHELGHVVGLWHEHTGPDRDRQVSIVRENIQPGQEYNFLKMEPQEVESLGETYDFDSIMHYARNTFSRGIFLDTIVPKYEVNGVKPPIGQRTRLRKGDIAQAPKLYKCPACGETLQDSTGNFSSPEYPNGYSAHMHCVWRICVTPGEKIILNFTSLDLYRSGLCWYQYVEVRDGFWRKAPLRGRFCGSKLPEPIVSTDSRLWVQFRSSSNWLGKGFFPVYEAMWGGDVKKDYGQIQSPNYPDDYRPSKVWMWRIQVSEGFDVGLTFQSFEIERHDSCGYDYLEVRDGHSESSTLIGRYCRYEKPDEIKSTSSPLWLKFVSDGSINKPGFAVNFFKEVDECSRPNRGGCEQRCLNTLGSYKWSCDPGYELPPEKRRCEAPCGGFLTKLNGSISRGGWPKEYPPNKNCIWQLVAPTQYRISLQFDFFETEGNDVCKYDFVEVRSGLTADSKLHGKFCGSEKPEVITSQYNNMRVEFKSDNTVSKKGFKAHFFSDKDECSKDNGGCQQDCVNTFGSYECQCRSGFVLHDNKHDCKEPGCDHKVTSTSGTITSPNWPDKYPSKKECTWAISSTPGHRVKLTFMEMDIESQPECAYDHLEVFDGRDAKAPVLGRFCGSKKPEPVLGTGSRMFLRFYSDNSVQRKGFQASHATECGGQVGADVKTKDLYSHAQFGDNNYPGGVDCEWVIVPEEGYGVEVLFQTFEVEDQTDCGYHYMELFDGYDSTAPRLGRYCGSGPPEEVYSAGDSVLVKFHSDDTITKKGFHLRYTSTKFQDTLHSRK
B2: recombinant pCP-2 with a 6-histidine tag, expressed in E. coli, refolded and activated by limited digestion with chymotrypsin (protein)
chain: B1 chain
B3: procollagen C-proteinase pCP-1 (730 amino acids), recombinant, in medium of transfected HT-1080 cells (protein)
chain: AATSRPERVWPDGVIPFVIGGNFTGSQRAVFRQAMRHWEKHTCVTFLERTDEHSYILFTYRPCGCCSYVGPRGGGPQAISIGKNCDKFGIVVHELGHVVGFWHEHTRPDRDRHVSIVRENIQPGQEYNFLKMEPQEVESLGETYDFDSIMHYARNTFSRGIFLDTIVPKYEVNGVKPPIGQRTRLSKGDIAQARKLYKCPACGETLQDSTGNFSSPEYPNGYSAHMHCVWRISVTPGEKIILNFTSLDLYRSPLCWYDYVEVRDGFWRKAPLRGRFCGSKLPEPIVSTDSRLWVEFRSSSNWVGNGFFAVYEGICGGDVKKDYGHIQSPNYPDDYRPSKVCIWRIQVSEGFHVGLTFQSFEIERHDSCAYDYLEVRDGHSESSTLIGRYCGYEKPDDIKSTSSRLWLKFVSDGSINKAGFAVNFFKEVDECSRPNRGGCEQRCLNTLGSYKCSCHPGYELAPDKRRCEAACGGFLTKLNGSITSPGWPKEYPPNKNCIWQLVAPTQYRISLQFDFFETEGNDVCKYDFVEVRSGLTAHSKLHGKFCGSEKPEVITSQYNNMRVEFKSDNTVSKKGFKAHFFSENRPALQPPRGPPHQLKFRVQKRNRTPQ
B4: recombinant pCP-2 with a 6-histidine tag, expressed in E. coli, refolded, without chymotrypsin activation (protein)
chain: LDFPDYTYDLAEEDDSEPLNYKDPCKAAAFLGDIALDEEDLRAFQVQQAVDVRRHTARKSSIKAAVPGNTSTPTCQSTNGQPQRGACGRWRGRSRSRRAATSRPEPVWPDGVIPFVIGGNFTGSQRAVFPQAMRHWEKHTCVTFLERTDEDSYILFTYAPCGCCSYVGRRGGGPQAISMGKNCDKFGIVVHELGHVVGLWHEHTGPDRDRQVSIVRENIQPGQEYNFLKMEPQEVESLGETYDFDSIMHYARNTFSRGIFLDTIVPKYEVNGVKPPIGQRTRLRKGDIAQAPKLYKCPACGETLQDSTGNFSSPEYPNGYSAHMHCVWRICVTPGEKIILNFTSLDLYRSGLCWYQYVEVRDGFWRKAPLRGRFCGSKLPEPIVSTDSRLWVQFRSSSNWLGKGFFPVYEAMWGGDVKKDYGQIQSPNYPDDYRPSKVWMWRIQVSEGFDVGLTFQSFEIERHDSCGYDYLEVRDGHSESSTLIGRYCRYEKPDEIKSTSSPLWLKFVSDGSINKPGFAVNFFKEVDECSRPNRGGCEQRCLNTLGSYKWSCDPGYELPPEKRRCEAPCGGFLTKLNGSISRGGWPKEYPPNKNCIWQLVAPTQYRISLQFDFFETEGNDVCKYDFVEVRSGLTADSKLHGKFCGSEKPEVITSQYNNMRVEFKSDNTVSKKGFKAHFFSDKDECSKDNGGCQQDCVNTFGSYECQCRSGFVLHDNKHDCKEPGCDHKVTSTSGTITSPNWPDKYPSKKECTWAISSTPGHRVKLTFMEMDIESQPECAYDHLEVFDGRDAKAPVLGRFCGSKKPEPVLGTGSRMFLRFYSDNSVQRKGFQASHATECGGQVGADVKTKDLYSHAQFGDNNYPGGVDCEWVIVPEEGYGVEVLFQTFEVEDQTDCGYHYMELFDGYDSTAPRLGRYCGSGPPEEVYSAGDSVLVKFHSDDTITKKGFHLRYTSTKFQDTLHSRK

Molecular target: 14C-labeled type I procollagen purified from chick embryo fibroblasts, P02457
Sequence (P02457 23-1453, chain 1 of 2): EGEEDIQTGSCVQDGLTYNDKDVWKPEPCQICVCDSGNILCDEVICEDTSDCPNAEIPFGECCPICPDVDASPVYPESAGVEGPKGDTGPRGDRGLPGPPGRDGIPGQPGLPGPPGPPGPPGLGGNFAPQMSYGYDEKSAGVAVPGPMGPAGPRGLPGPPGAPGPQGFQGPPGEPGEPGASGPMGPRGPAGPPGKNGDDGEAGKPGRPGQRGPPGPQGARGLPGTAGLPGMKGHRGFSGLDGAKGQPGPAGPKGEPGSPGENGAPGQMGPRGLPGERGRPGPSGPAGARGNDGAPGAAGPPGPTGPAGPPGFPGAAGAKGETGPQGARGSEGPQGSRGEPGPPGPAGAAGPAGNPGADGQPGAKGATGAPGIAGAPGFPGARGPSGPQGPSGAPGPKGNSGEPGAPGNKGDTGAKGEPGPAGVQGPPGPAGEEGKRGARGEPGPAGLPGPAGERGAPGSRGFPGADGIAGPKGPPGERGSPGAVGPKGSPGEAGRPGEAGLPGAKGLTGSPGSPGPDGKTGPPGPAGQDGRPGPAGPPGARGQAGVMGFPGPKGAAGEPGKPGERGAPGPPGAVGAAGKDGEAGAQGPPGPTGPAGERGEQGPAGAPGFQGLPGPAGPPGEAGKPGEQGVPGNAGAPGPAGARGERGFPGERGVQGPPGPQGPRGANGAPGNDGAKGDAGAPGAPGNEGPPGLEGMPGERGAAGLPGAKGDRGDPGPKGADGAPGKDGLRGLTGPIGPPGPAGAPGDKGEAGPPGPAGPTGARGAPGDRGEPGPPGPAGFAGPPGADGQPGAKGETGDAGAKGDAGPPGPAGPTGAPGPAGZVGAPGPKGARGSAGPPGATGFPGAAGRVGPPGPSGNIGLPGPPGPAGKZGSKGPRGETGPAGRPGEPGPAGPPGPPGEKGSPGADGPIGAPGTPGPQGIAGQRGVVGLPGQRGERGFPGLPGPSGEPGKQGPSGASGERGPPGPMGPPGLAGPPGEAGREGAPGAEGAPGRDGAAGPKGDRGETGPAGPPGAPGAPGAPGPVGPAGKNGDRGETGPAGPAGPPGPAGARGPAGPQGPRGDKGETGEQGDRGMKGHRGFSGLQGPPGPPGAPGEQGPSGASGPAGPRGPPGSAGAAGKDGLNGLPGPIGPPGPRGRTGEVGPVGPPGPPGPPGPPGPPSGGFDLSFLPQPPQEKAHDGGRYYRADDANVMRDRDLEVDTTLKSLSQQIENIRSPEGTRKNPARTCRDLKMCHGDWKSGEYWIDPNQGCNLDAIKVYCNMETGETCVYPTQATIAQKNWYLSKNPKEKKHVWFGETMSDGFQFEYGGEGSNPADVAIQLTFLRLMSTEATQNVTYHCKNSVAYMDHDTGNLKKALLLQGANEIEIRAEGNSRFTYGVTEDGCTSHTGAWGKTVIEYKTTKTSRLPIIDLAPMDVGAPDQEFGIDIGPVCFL
Sequence (chain, as listed by the source, chain 2 of 2): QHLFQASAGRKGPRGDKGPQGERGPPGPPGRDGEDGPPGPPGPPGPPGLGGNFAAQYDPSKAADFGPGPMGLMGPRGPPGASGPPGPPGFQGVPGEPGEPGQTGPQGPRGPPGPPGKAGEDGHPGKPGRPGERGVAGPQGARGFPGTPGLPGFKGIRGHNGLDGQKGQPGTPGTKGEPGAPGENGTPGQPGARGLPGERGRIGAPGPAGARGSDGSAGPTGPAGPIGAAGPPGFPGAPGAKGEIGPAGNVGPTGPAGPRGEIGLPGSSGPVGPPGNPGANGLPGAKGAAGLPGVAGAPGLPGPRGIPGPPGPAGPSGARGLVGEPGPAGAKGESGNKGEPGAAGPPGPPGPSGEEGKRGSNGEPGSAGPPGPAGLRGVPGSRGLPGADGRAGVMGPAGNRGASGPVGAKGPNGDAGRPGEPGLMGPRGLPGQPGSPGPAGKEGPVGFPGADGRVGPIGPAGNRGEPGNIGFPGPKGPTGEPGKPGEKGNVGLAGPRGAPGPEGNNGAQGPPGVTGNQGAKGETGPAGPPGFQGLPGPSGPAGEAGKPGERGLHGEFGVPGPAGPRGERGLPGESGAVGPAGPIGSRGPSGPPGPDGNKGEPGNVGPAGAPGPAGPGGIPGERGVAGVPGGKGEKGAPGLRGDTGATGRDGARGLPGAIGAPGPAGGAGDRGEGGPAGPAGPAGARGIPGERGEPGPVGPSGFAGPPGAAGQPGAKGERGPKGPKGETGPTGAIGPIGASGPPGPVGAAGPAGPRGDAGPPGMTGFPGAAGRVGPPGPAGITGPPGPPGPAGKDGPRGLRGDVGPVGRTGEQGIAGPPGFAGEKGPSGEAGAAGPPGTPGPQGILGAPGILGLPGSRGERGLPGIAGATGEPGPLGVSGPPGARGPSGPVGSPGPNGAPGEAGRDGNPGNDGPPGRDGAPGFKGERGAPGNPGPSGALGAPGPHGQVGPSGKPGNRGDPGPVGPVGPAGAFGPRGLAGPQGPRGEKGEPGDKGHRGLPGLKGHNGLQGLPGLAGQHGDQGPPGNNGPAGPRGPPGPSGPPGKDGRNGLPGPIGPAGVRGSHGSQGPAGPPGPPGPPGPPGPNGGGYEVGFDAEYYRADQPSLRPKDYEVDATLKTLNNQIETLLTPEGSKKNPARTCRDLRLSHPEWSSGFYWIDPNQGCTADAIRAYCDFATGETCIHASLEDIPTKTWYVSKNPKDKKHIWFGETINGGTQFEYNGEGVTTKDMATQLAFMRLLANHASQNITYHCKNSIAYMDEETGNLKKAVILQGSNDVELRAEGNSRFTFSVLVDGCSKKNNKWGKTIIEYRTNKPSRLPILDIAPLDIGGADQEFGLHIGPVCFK

Protein | C-proteinase activity: cleavage of 14C-labeled type I procollagen, SDS-polyacrylamide gel | C-proteinase activity in a standard reaction system with 14C-labeled procollagen | specific activity relative to C-proteinase isolated from chick embryo tendons
B1 | Medium from neomycin-resistant clones expressing either pCP-1 or pCP-2 contained enzymatic activity that specifically cleaved type I procollagen into the products predicted by the introduction of C-proteinase; also recorded: Complete cleavage of type I procollagen to pNα1 (I) chains, pNα2 (I) chains and the C-propeptide were obtained with medium from a clone transfected with pCP-2 and partially fractionated and concentrated by membrane filtration | – | –
B2 | – | Specific C-proteinase activity was observed (Lanes 1 to 4 in FIG. 5 ) after limited digestion with chymotrypsin | about 1/30-th of the specific activity of C-proteinase isolated from chick embryo tendons
B3 | Medium from neomycin-resistant clones expressing either pCP-1 or pCP-2 contained enzymatic activity that specifically cleaved type I procollagen into the products predicted by the introduction of C-proteinase | – | –
B4 | – | No C-proteinase activity was observed when the recombinant protein was incubated in a standard reaction system without prior activation of the protein by digestion with chymotrypsin | –
